The record followed here is patent US20170056486A1.

One experiment has as its target HLA-A*24 (human). As to the kind of experiment: UV-exchange ELISA (anti-b2m); yield >=75%. Background: ELISA stands for enzyme-linked immunosorbent assay.
RYPALFPVL: the peptide exchange yield is > 75%. QYPFHVPLL: the peptide exchange yield is > 75%. On to YYTQYSQTI, for which the peptide exchange yield is > 75%. Turning to VYVPFGGKSMITF, the peptide exchange yield was > 75%. For SYLTWHQQI, the peptide exchange yield was > 75%. In the case of QYILAVPVL, the peptide exchange yield is > 75%. Consider EYLHNCSYF, for which the peptide exchange yield was > 75%. Consider SYGTVSQI, for which the peptide exchange yield is > 75%.

In the case of LFITGGQFF, the peptide exchange yield is > 75%.

Turning to RYLTISNLQF, the peptide exchange yield is > 75%. With VFASLPGFLF, the peptide exchange yield is > 75%.

On to VYPFDWQYI, for which the peptide exchange yield was > 75%. As for QYLDGTWSL, the peptide exchange yield was > 75%. For SYGTVSQIF, the peptide exchange yield is > 75%. On to VFIFKGNEF, for which the peptide exchange yield was > 75%. With KYIDYLMTW, the peptide exchange yield was > 75%. AYVIAVHLF: the peptide exchange yield is > 75%. Regarding IYKWITDNF, the peptide exchange yield is > 75%. Still for that read-out and setting: then FYTLPFHLI, with > 75%; and TYTFLKETF, with > 75%; and VYGVPTPHF, with > 75%. With VYEAMVPLF, the peptide exchange yield is > 75%. The same measure, in the same setting: the value for RYLINSYDF was > 75%. For YYMELTKLLL, the peptide exchange yield was > 75%. Turning to GYIEHFSLW, the peptide exchange yield is > 75%.

For another experiment, the target named is HLA-A*24 (human). As to the kind of experiment: UV-exchange ELISA (anti-b2m); yield 50%-75%.
Consider VYIAELEKI, for which the peptide exchange yield was in the range of 50 to 75%. Same read-out and setting: then IYGEKTYAF, with 50 to 75%; and KYQNVKHNL, with 50 to 75%; and YYSEVPVKL, with 50 to 75%. The molecule AYLPPLQQVF returned a peptide exchange yield of 50 to 75%. For QYIEELQKF, the peptide exchange yield is 50 to 75%.

With TYADIGGLDNQI, the peptide exchange yield is 50 to 75%. On the same count and under the same terms, the value for QYTPHSHQF was 50 to 75%; that for IYVTGGHLF was 50 to 75%; that for KYTEKLEEI was 50 to 75%. As to RYFDVGLHNF, the peptide exchange yield fell in the range of 50 to 75%. Still for that read-out and setting: the value for GYISNGELF was 50 to 75%; that for TFSDVEAHF was 50 to 75%. For VYTHEVVTL, the peptide exchange yield lay within 50 to 75%. For the molecule KYTDYILKI, the peptide exchange yield was 50 to 75%.

Molecule VYTPVASRQSL returned a peptide exchange yield of 50 to 75%. In turn, VYNEQIRDLL returned a peptide exchange yield of 50 to 75%. For the molecule VYVIEPHSMEF, the peptide exchange yield fell in the range of 50 to 75%. Regarding RFIGIPNQF, the peptide exchange yield is 50 to 75%.

Turning to QYLELAHSL, the peptide exchange yield lay in the range of 50 to 75%. Still for that read-out and setting: then KYLNENQLSQL, with 50 to 75%; and RYKPGEPITF, with 50 to 75%; and VFSPDGHLF, with 50 to 75%.

Consider KYPASSSVF, for which the peptide exchange yield is 50 to 75%.
